Consider one molecule from PMC12669751, “Immunodominant antibodies against hemagglutinin in ferrets following infection with 2018 to 2019 influenza vaccine strains” (NPJ Vaccines, 2025).

The assay has as its target TX/50 cell-version rHA1 (A/Texas/50/2012(H3N2) HA1) (Influenza A virus …, UniProt R4L1D1, strain). As to the kind of experiment: BLI. Particulars: one partner purified.

B1: monoclonal antibody FluA-20 (antibody, V domains shown)
VH: QVQLEESGPGLVKPSETLSLTCSVSGVSVTSDIYYWTWIRQPPGKGLEWIGYIFYNGDTNYNPSLKSRVTMSIDTSKNEFSLRLTSVTAADTAVYFCARGTEDLGYCSSGSCPNHWGQGTLVTVSS
VL: DIVMTQSPSSLSASIGDRVTITCRPSQNIRSFLNWFQHKPGKAPKLLIYAASNLQSGVPSRFSGSGSGTEFTLTIRSLQPEDFATYYCQQSYNTPPTFGQGTKVEIK
notes: also called FluA-20 mAb; pan-H3 anti-HA1 mAb; copies: 2 + 2
For the molecule B1, the binding result is on record as “binds”.
